Results taken from patent US20070087356A1.

Assays:
[1] = biological target: GFP-Tus-His6 fusion protein (green fluorescent protein fused to E. coli Tus E47Q with a C-terminal six-histidine tag) (E. coli) (UniProt P16525); assay: protein microarray, fluorescence scan; fusion protein expressed in situ and captured on the spotted plasmid with wild-type Ter site
[2] = biological target: GFP-Tus-His6 fusion protein (green fluorescent protein fused to E. coli Tus E47Q with a C-terminal six-histidine tag) (E. coli) (UniProt P16525); assay: protein microarray, fluorescence scan; fusion protein expressed in situ and captured on the spotted plasmid with mutant Ter site (SEQ ID NO: 12)

Cy3 Signal Intensity (Background subtracted) (arbitrary units) [1]: 20600 | Cy5 Signal Intensity (Background subtracted) (arbitrary units) [1]: 14000 | Cy3 Signal Intensity (Background subtracted) (arbitrary units) [2]: 10900 | Cy5 Signal Intensity (Background subtracted) (arbitrary units) [2]: 4740
Substance: monoclonal antibody to the poly-his tag (Sigma-Aldrich), labeled with Cy3 or Cy5
